This assay deals with T1, integrin α4β1 (human, UniProt P13612 34-1032; P05556 21-798).
T1 construct: whole, on cells; Present on human PBMNC isolated from blood and on HUVEC; also called α4β1 integrin; CD49d (α4β1 integrin)
Description: capture of PBMNC on immobilised H2R5 against blocking antibody and heparin-only control.

T1 sequence (P13612 34-1032, chain 1 of 2): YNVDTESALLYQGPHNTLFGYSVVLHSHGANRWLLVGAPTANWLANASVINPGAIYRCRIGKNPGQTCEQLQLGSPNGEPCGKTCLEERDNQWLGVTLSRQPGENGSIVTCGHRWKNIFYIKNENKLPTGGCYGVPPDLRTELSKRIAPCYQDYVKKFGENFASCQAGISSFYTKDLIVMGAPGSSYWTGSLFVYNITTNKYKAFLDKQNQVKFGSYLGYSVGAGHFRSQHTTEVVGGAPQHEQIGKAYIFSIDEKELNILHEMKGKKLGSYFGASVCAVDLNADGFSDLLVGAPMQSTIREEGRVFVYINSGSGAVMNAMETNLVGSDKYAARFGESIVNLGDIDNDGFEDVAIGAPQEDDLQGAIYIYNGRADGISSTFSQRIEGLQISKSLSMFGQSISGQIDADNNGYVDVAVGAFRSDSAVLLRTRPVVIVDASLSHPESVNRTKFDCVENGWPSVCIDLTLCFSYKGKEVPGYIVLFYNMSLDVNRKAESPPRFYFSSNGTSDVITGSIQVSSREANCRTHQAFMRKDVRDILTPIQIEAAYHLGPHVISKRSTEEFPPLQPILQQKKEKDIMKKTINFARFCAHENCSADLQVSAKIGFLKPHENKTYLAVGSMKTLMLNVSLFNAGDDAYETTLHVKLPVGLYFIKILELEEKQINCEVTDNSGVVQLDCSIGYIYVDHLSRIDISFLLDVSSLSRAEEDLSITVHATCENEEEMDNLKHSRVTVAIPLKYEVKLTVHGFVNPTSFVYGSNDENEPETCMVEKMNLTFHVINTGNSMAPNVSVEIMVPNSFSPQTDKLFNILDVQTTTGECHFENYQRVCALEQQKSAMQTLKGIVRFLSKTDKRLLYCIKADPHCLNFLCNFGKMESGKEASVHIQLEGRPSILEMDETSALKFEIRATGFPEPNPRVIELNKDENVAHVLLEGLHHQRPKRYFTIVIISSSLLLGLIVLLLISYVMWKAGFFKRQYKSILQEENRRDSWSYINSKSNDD
T1 sequence (P05556 21-798, chain 2 of 2): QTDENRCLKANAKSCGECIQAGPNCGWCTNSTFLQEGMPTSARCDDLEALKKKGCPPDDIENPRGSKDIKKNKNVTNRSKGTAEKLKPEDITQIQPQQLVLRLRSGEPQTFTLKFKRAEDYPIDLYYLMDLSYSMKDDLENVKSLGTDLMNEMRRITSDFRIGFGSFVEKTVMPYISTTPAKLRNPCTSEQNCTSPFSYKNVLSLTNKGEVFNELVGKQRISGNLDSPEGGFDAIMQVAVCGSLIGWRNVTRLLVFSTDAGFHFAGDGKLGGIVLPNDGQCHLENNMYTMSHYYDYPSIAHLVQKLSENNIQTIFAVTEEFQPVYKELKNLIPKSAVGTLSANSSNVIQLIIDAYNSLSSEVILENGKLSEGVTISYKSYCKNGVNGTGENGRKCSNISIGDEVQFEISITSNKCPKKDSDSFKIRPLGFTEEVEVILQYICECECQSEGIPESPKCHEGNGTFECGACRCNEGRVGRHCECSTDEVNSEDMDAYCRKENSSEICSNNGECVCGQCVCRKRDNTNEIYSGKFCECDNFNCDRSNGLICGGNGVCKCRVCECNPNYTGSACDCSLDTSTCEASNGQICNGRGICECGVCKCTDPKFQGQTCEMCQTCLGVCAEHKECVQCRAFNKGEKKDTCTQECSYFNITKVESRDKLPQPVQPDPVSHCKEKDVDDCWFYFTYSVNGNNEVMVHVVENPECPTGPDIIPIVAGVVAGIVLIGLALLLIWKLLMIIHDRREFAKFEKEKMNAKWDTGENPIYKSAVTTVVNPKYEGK

B1: H2R5 fusion protein, H2-(GGGS-…)5 (designed binder)
chain: MGSSHHHHHHSSGLVPRGSHMASMTGGQQMGRGSAIPAPTDLKFTQGTPTSLSAQWTPPNVQLTGYRVRVTPKEKTGPMKEINLAPDSSSVVVSGLMVATKYEVSVYALKDTLTSRPAQGVVTTLENVSPPRRARVTDATETTITISWRTKTETITGFQVDAVPANGQTPIQRTIKPDVRSYTITGLQPGTDYKIYLYTLNDNARSSPVVIDASTAIDAPSNLRFLATTPNSLLVSWQPPRARITGYIIKYEKPGSPPREVVPRPRPGVTEATITGLEPGTEYTIYVIALKNNQKSEPLIGHKLGGGGSHIPREDVDYHGGGGSHIPREDVDYHGGGGSHIPREDVDYHGGGGSHIPREDVDYHGGGGSHIPREDVDYHLEHHHHHH
notes: no residue limits are stated; also called fusion peptide (H2R5); His tagged fusion protein
Consider B1, for which the binding result is reported as “binds”.

The record behind these values is patent US20260097149A1 (RESEARCH FOUNDATION FOR THE STATE UNIVERSITY OF NEW YORK, published 2026).
